pKd: −log10 of the molar value.
Target: human IgG (human)
Assay: BLI (Octet), gEgI on Ni-NTA sensor, hIgG in solution

Row | Substance | pKd | Response [nm] | koff [s⁻¹] | kon [M⁻¹ s⁻¹]
1 | HSV2-gE_P318R S338H_gI (from UniProt P89475 21-416; P06764 21-256) (receptor) | 8.27 | 0.192 | 4.28e-05 | 8050
2 | HSV2-gE_P318R S338L_gI (from UniProt P89475 21-416; P06764 21-256) (receptor) | 6.75 | 0.49 | 0.00138 | 7870
3 | HSV2-gE_P319G V340M_gI (from UniProt P89475 21-416; P06764 21-256) (receptor) | 6.53 | 0.393 | 0.00393 | 13200
4 | HSV2-gE_P319G V340R_gI (from UniProt P89475 21-416; P06764 21-256) (receptor) | 6.71 | 0.287 | 0.00137 | 6960
5 | HSV2-gE_P319G V340W_gI (from UniProt P89475 21-416; P06764 21-256) (receptor) | 6.41 | 0.106 | 0.00249 | 6460
6 | HSV2-gE_P319L V340M_gI (from UniProt P89475 21-416; P06764 21-256) (receptor) | 6.65 | 0.336 | 0.00216 | 9750
7 | HSV2-gE_P319L V340R_gI (from UniProt P89475 21-416; P06764 21-256) (receptor) | 6.80 | 0.509 | 0.00141 | 8770
8 | HSV2-gE_P319L V340W_gI (from UniProt P89475 21-416; P06764 21-256) (receptor) | 6.64 | 0.139 | 0.00217 | 9450
9 | HSV2-gE_R314G F322A_gI (from UniProt P89475 21-416; P06764 21-256) (receptor) | 6.63 | 0.469 | 0.00328 | 14200
10 | HSV2-gE_R314G F322I_gI (from UniProt P89475 21-416; P06764 21-256) (receptor) | 6.57 | 0.291 | 0.00262 | 9620
11 | HSV2-gE_R314G F322P_gI (from UniProt P89475 21-416; P06764 21-256) (receptor) | 6.74 | 0.439 | 0.00209 | 11500
12 | HSV2-gE_R314G P318D_gI (from UniProt P89475 21-416; P06764 21-256) (receptor) | 6.43 | 0.122 | 0.0033 | 8930
13 | HSV2-gE_R314G P318I_gI (from UniProt P89475 21-416; P06764 21-256) (receptor) | 6.35 | 0.153 | 0.00278 | 6200
14 | HSV2-gE_R314G P318R_gI (from UniProt P89475 21-416; P06764 21-256) (receptor) | 6.83 | 0.22 | 0.000833 | 5640
15 | HSV2-gE_R314G V340M_gI (from UniProt P89475 21-416; P06764 21-256) (receptor) | 6.41 | 0.466 | 0.00401 | 10300
16 | HSV2-gE_R314G V340R_gI (from UniProt P89475 21-416; P06764 21-256) (receptor) | 6.40 | 0.439 | 0.00245 | 6230
17 | HSV2-gE_R314G V340W_gI (from UniProt P89475 21-416; P06764 21-256) (receptor) | 6.00 | 0.144 | 0.00543 | 5400

Row | Substance | pKd | Response [nm] | koff [s⁻¹] | kon [M⁻¹ s⁻¹]
18 | HSV2-gE_R314L F322A_gI (from UniProt P89475 21-416; P06764 21-256) (receptor) | 6.52 | 0.603 | 0.00385 | 12700
19 | HSV2-gE_R314L F322I_gI (from UniProt P89475 21-416; P06764 21-256) (receptor) | 6.56 | 0.433 | 0.00277 | 10100
20 | HSV2-gE_R314L F322P_gI (from UniProt P89475 21-416; P06764 21-256) (receptor) | 6.68 | 0.607 | 0.00255 | 12100
21 | HSV2-gE_R314L P318D_gI (from UniProt P89475 21-416; P06764 21-256) (receptor) | > 12.00 | 0.134 | < 1e-07 | 7900
22 | HSV2-gE_R314L P318I_gI (from UniProt P89475 21-416; P06764 21-256) (receptor) | 6.58 | 0.294 | 0.00198 | 7580
23 | HSV2-gE_R314L P318R_gI (from UniProt P89475 21-416; P06764 21-256) (receptor) | > 12.00 | 0.202 | < 1e-07 | 8050
24 | HSV2-gE_R314L V340M_gI (from UniProt P89475 21-416; P06764 21-256) (receptor) | 6.34 | 0.427 | 0.00456 | 10100
25 | HSV2-gE_R314L V340R_gI (from UniProt P89475 21-416; P06764 21-256) (receptor) | 6.21 | 0.284 | 0.00307 | 4990
26 | HSV2-gE_R314L V340W_gI (from UniProt P89475 21-416; P06764 21-256) (receptor) | 6.04 | 0.148 | 0.00524 | 5740
27 | HSV2-gE_R314P F322A_gI (from UniProt P89475 21-416; P06764 21-256) (receptor) | 6.61 | 0.655 | 0.00423 | 17100
28 | HSV2-gE_R314P F322I_gI (from UniProt P89475 21-416; P06764 21-256) (receptor) | 6.52 | 0.389 | 0.0036 | 12000
29 | HSV2-gE_R314P F322P_gI (from UniProt P89475 21-416; P06764 21-256) (receptor) | 6.55 | 0.561 | 0.00356 | 12600
30 | HSV2-gE_R314P P318D_gI (from UniProt P89475 21-416; P06764 21-256) (receptor) | 6.65 | 0.306 | 0.00145 | 6520
31 | HSV2-gE_R314P P318I_gI (from UniProt P89475 21-416; P06764 21-256) (receptor) | 6.56 | 0.248 | 0.00223 | 8040
32 | HSV2-gE_R314P P318R_gI (from UniProt P89475 21-416; P06764 21-256) (receptor) | 6.50 | 0.371 | 0.00199 | 6270
33 | HSV2-gE_R314P V340M_gI (from UniProt P89475 21-416; P06764 21-256) (receptor) | 6.40 | 0.525 | 0.0046 | 11400
34 | HSV2-gE_R314P V340R_gI (from UniProt P89475 21-416; P06764 21-256) (receptor) | 6.34 | 0.351 | 0.00241 | 5260

Reference: patent US20220273789A1
